These results are taken from patent publication US20250002566A1 (FUNDA O OSWALDO CRUZ, published 2025).

A word on the Kd: it is the free concentration of one partner at which half of the binding sites on the other are occupied at equilibrium, for simple one-to-one binding.

Experiment [1] concerns the target T1, ZIKV Envelope (E) protein, recombinant, in its dimeric form (Native Antigen, UK) (Zika virus).
T1 chain: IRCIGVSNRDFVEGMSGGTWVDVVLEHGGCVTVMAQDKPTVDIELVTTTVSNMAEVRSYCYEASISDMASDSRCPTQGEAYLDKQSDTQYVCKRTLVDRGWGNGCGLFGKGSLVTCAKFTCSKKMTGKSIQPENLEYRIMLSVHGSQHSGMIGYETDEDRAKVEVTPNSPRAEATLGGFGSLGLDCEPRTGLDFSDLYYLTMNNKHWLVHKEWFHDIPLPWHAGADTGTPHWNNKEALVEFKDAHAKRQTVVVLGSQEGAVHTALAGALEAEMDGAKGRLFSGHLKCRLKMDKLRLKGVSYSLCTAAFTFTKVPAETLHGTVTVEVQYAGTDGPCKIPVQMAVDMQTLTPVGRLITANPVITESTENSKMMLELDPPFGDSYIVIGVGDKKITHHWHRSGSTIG
The experiment can be described thus: estimated from MST concentrations at maximum binding (ca. 3x10^13 E dimer molecules with ca. 8x10^12 ZVPA3 molecules).

Experiment [2] concerns the target T1, ZIKV Envelope (E) protein, recombinant, …. The experiment is described as follows: microscale thermophoresis (MST), 150 nM dye-labelled ZIKV E, ZVPA3 titrated in 16 serial 1:2 dilutions, three independent experiments.
The target in experiment [3] is DENV1 envelope (E) protein on virus particles (strain PE/97-42735) (Dengue virus 1). The experiment can be described thus: cell-based or functional assay.
The target in experiment [4] is DENV2 envelope (E) protein on virus particles (strain PE/95-3808) (Dengue virus 2). The experiment can be described thus: cell-based or functional assay.
The target of experiment [5] is T1, ZIKV Envelope (E) protein, recombinant, …. The experiment is described as follows: thermal unfolding of the ZVPA3-E(Dimer) complex at the estimated stoichiometry, compared with ZVPA3 alone.

B1: ZVPA3 (designed binder)
chain: MGSSHHHHHHSSGLVPRGSHMAKGDPHVLLTTSAGNIELELDSQKAPVSVQNFLDYVNNGFYNNTTFHSVIPGYMIQGGGYTEDMQQKQPNPPIKNEADNGLRNTRGTIAMMRTEDKDSATSQFFINVADNAYADHGQTRYGFAVFGKVVKGMDVADKISQVPTHDVGPYQSVPSKPVVILSATVLPGSGC
notes: Produced as a monomer, ca. 20 kDa; In the MST with virus particles ZVPA3 carried the RED NT-647-NHS dye; The crystal structure of ZVPA3 alone is PDB 7ZFM; also called ZVAP3; designed protein
On to B1, for which the “stoichiometry ratio ZVPA3:E(Dimer)” value in experiment [1] was 3.75 E(Dimer) per ZVPA3. Moreover, the dissociation constant Kd in experiment [2] stood at 86.6 nM. For the same molecule, in experiment [3], the “EC50, plaque reduction neutralization test (PRNT) of DENV1 on Vero cells” value is 870 nM. Besides, in experiment [4], the “EC50, plaque reduction neutralization test (PRNT) of DENV2 on Vero cells” value was found to be 980 nM. The “stability gain of the complex against ZVPA3 alone (thermal unfolding)” value in experiment [5] was approximately 5 ° C.
